Laboratory results from PMC3587828 (The Journal of Cell Biology, 2013).

Assays:
MBP–Morg1 = biological target: T1, MBP–Morg1 (human, UniProt Q9BRX9 1-315); assay: pull-down
T1 sequence (looked up): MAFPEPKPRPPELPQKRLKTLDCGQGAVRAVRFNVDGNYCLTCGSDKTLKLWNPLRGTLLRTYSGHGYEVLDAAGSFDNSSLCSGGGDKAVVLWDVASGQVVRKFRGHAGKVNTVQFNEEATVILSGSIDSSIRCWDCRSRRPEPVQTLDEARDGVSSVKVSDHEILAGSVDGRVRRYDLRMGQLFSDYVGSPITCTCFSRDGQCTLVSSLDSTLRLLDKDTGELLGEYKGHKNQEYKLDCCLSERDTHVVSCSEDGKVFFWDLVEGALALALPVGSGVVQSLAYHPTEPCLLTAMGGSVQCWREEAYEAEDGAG

[1] = biological target: recombinant Cdc42 (Q61L), GST-free (human, UniProt P60953 1-188, Q61L | C188S); assay: pull-down
recombinant Cdc42 (Q61L), GST-free, sequence (P60953 1-188 Q61L/C188S): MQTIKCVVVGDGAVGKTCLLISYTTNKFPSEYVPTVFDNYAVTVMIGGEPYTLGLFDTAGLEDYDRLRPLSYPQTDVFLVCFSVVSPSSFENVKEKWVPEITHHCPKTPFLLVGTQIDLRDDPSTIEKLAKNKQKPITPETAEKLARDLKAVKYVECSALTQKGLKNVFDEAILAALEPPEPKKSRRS

- binding result (MBP–Morg1): binds
- binding result [1]: binds
B1: GST–Par6β (126–254) (domain or fragment, human, UniProt Q9BYG5 126-254, looked up)
chain: RKKPHIVISMPQDFRPVSSIIDVDILPETHRRVRLYKYGTEKPLGFYIRDGSSVRVTPHGLEKVPGIFISRLVPGGLAQSTGLLAVNDEVLEVNGIEVSGKSLDQVTDMMIANSRNLIITVRPANQRNN
